Results from the supplement of paper PMC7877785.
± gives the uncertainty stated by the source.

Assay: self-splicing fitness, log relative to wild type (ln ratio); higher = more splicing; Tetrahymena group I intron in knt gene, E. coli kanamycin selection, DiMSum; sequences stand for … in CUCUCU…GGAGGGAAAAGUUAUCAGGCAUGCACCUGGUAGCUAGUCUUUAAACCAAUAGAUUGCAUCGGUUUAAAAGGCAAGACCGUCAAAUUGCGGGAAAGGGGUCAACAGCCGUUCAGUACCAAGUCUCAGGGGAAACUUUGAGAUGGCCUUGCAAAGGGUAUGGUAAUAAGCUGACGGACAUGGUCCUAACCACGCAGCCAAGUCCUAAGUCAACAGAUCUUCUGUUGAUAUGGAUGCAGUUCACAGACUAAAUGUCGGUCGGGGAAGAUGUAUUCUUCUCAUAAGAUAUAGUCGGACCUCUCCUUAAUGGGAGCUAGCGGAUGAAGUGAUGCAACACUGGAGCCGCUGGGAACUAAUUUGUAUGCGAAAGUAUAUUGAUUAGUUUUGGAGUACUCGUGGUCG
Procedure, shortened: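 Library with all eight P1ex-region intron nucleotides randomised, intron inside the knt kanamycin-resistance gene on pET-22b(+), in E. coli BL21(DE3). Cells grew overnight at 37°C or 30°C on LB agar with or without 25 μg/mL kanamycin (plus 100 μg/mL carbenicillin, 50 μM IPTG, 0.2% rhamnose), in six replicate transformations. Pooled colonies were amplicon-sequenced on Illumina HiSeq 2500. DiMSum fitness is the error-weighted combination of wild-type-normalised replicate fold changes, kanamycin versus none.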

Sequence: GUGUAGCAAUAUUACGACAC
- self-splicing fitness (ln) (30 °C): -2.68 ± 0.18
- self-splicing fitness (ln) (37 °C): -2.17 ± 0.2

Sequence: GGCUAGCAAUAUUACGGCUU
- self-splicing fitness (ln) (30 °C): -1.31 ± 0.17
- self-splicing fitness (ln) (37 °C): 0.197 ± 0.21

Sequence: CGCUAGCAAUAUUACGUAAU
- self-splicing fitness (ln) (30 °C): -3.03 ± 0.16
- self-splicing fitness (ln) (37 °C): -1.53 ± 0.14

Sequence: UCUCAGCAAUAUUACGCCGA
- self-splicing fitness (ln) (37 °C): -0.855 ± 0.18

Sequence: CUUCAGCAAUAUUACGCUAA
- self-splicing fitness (ln) (30 °C): -3.37 ± 0.26
- self-splicing fitness (ln) (37 °C): -2.3 ± 0.3

Sequence: UUCUAGCAAUAUUACGAAGG
- self-splicing fitness (ln) (30 °C): -2.9 ± 0.19
- self-splicing fitness (ln) (37 °C): -2.38 ± 0.39

Sequence: CCCUAGCAAUAUUACGGGUU
- self-splicing fitness (ln) (30 °C): -4.16 ± 0.17
- self-splicing fitness (ln) (37 °C): -2.39 ± 0.15

Sequence: GUUAAGCAAUAUUACGGAAA
- self-splicing fitness (ln) (30 °C): -1.77 ± 0.26
- self-splicing fitness (ln) (37 °C): -1.06 ± 0.27

Sequence: GGUGAGCAAUAUUACGAACC
- self-splicing fitness (ln) (37 °C): -2.72 ± 0.22

Sequence: UUGGAGCAAUAUUACGAGUU
- self-splicing fitness (ln) (30 °C): -4.04 ± 0.26
- self-splicing fitness (ln) (37 °C): -3.45 ± 0.34

Sequence: UAGUAGCAAUAUUACGGUUU
- self-splicing fitness (ln) (30 °C): -3.57 ± 0.31
- self-splicing fitness (ln) (37 °C): -0.883 ± 0.16

Sequence: CGCAAGCAAUAUUACGACAG
- self-splicing fitness (ln) (30 °C): -0.409 ± 0.083
- self-splicing fitness (ln) (37 °C): 0.344 ± 0.13

Sequence: GUCUAGCAAUAUUACGUUCU
- self-splicing fitness (ln) (30 °C): -0.494 ± 0.098
- self-splicing fitness (ln) (37 °C): -0.247 ± 0.11

Sequence: UGUAAGCAAUAUUACGGGAC
- self-splicing fitness (ln) (30 °C): -2.45 ± 0.25
- self-splicing fitness (ln) (37 °C): -2.62 ± 0.44

Sequence: AACUAGCAAUAUUACGGCAG
- self-splicing fitness (ln) (30 °C): -1.09 ± 0.094
- self-splicing fitness (ln) (37 °C): -0.755 ± 0.095

Sequence: UCAGAGCAAUAUUACGGUGU
- self-splicing fitness (ln) (30 °C): -4.01 ± 0.3
- self-splicing fitness (ln) (37 °C): -2.25 ± 0.18

Sequence: CUUUAGCAAUAUUACGGCUU
- self-splicing fitness (ln) (30 °C): -3.62 ± 0.32

Sequence: AACGAGCAAUAUUACGUUUC
- self-splicing fitness (ln) (30 °C): -3.05 ± 0.19
- self-splicing fitness (ln) (37 °C): -2.42 ± 0.19

Sequence: UGUGAGCAAUAUUACGUGGG
- self-splicing fitness (ln) (30 °C): -3.67 ± 0.25
- self-splicing fitness (ln) (37 °C): -2.34 ± 0.15

Sequence: UACAAGCAAUAUUACGGUGA
- self-splicing fitness (ln) (30 °C): -1.28 ± 0.082
- self-splicing fitness (ln) (37 °C): -0.89 ± 0.1

Sequence: GGACAGCAAUAUUACGAUGC
- self-splicing fitness (ln) (30 °C): 0.225 ± 0.075
- self-splicing fitness (ln) (37 °C): 0.446 ± 0.09

Sequence: AUUCAGCAAUAUUACGCGUG
- self-splicing fitness (ln) (30 °C): -1.25 ± 0.054
- self-splicing fitness (ln) (37 °C): -0.218 ± 0.069

Sequence: CGGUAGCAAUAUUACGGAUU
- self-splicing fitness (ln) (30 °C): -2.63 ± 0.36
- self-splicing fitness (ln) (37 °C): -2.23 ± 0.34

Sequence: CGAAAGCAAUAUUACGGCGC
- self-splicing fitness (ln) (30 °C): -1.14 ± 0.13
- self-splicing fitness (ln) (37 °C): -0.908 ± 0.15

Sequence: UAGCAGCAAUAUUACGCCGA
- self-splicing fitness (ln) (30 °C): -0.884 ± 0.14
- self-splicing fitness (ln) (37 °C): 0.482 ± 0.14

Sequence: GAUAAGCAAUAUUACGAGAG
- self-splicing fitness (ln) (30 °C): -2.84 ± 0.26
- self-splicing fitness (ln) (37 °C): -3.04 ± 0.4

Sequence: UGAGAGCAAUAUUACGCCUA
- self-splicing fitness (ln) (30 °C): -1.58 ± 0.22
- self-splicing fitness (ln) (37 °C): -0.073 ± 0.21

Sequence: ACUGAGCAAUAUUACGUGCC
- self-splicing fitness (ln) (30 °C): -2.31 ± 0.23

Sequence: UACAAGCAAUAUUACGAAGC
- self-splicing fitness (ln) (30 °C): -3.39 ± 0.23
- self-splicing fitness (ln) (37 °C): -2.74 ± 0.26

Sequence: GAUGAGCAAUAUUACGCCGA
- self-splicing fitness (ln) (37 °C): -1.44 ± 0.45

Sequence: ACGCAGCAAUAUUACGAUGG
- self-splicing fitness (ln) (30 °C): -1.82 ± 0.097
- self-splicing fitness (ln) (37 °C): -1.59 ± 0.13

Sequence: UGGCAGCAAUAUUACGAACU
- self-splicing fitness (ln) (30 °C): -1.29 ± 0.12
- self-splicing fitness (ln) (37 °C): -0.471 ± 0.16

Sequence: AUAUAGCAAUAUUACGACAA
- self-splicing fitness (ln) (30 °C): -0.546 ± 0.21
- self-splicing fitness (ln) (37 °C): 0.567 ± 0.18

Sequence: ACGCAGCAAUAUUACGUGGG
- self-splicing fitness (ln) (30 °C): -3.55 ± 0.13
- self-splicing fitness (ln) (37 °C): -2.37 ± 0.12

Sequence: GAUCAGCAAUAUUACGACGC
- self-splicing fitness (ln) (30 °C): -0.169 ± 0.077
- self-splicing fitness (ln) (37 °C): 0.198 ± 0.09

Sequence: AGUAAGCAAUAUUACGCCAA
- self-splicing fitness (ln) (30 °C): -3.35 ± 0.29
- self-splicing fitness (ln) (37 °C): -2.6 ± 0.24

Sequence: UGGAAGCAAUAUUACGUGGG
- self-splicing fitness (ln) (30 °C): -2.89 ± 0.13
- self-splicing fitness (ln) (37 °C): -2.53 ± 0.18

Sequence: GUUAAGCAAUAUUACGGCUG
- self-splicing fitness (ln) (30 °C): -0.765 ± 0.11
- self-splicing fitness (ln) (37 °C): -0.135 ± 0.13

Sequence: CCAUAGCAAUAUUACGUGCU
- self-splicing fitness (ln) (30 °C): -3.88 ± 0.17
- self-splicing fitness (ln) (37 °C): -2.1 ± 0.15

Sequence: CGCCAGCAAUAUUACGCGUG
- self-splicing fitness (ln) (30 °C): -2.06 ± 0.1
- self-splicing fitness (ln) (37 °C): -0.717 ± 0.093

Sequence: AGCUAGCAAUAUUACGAAGU
- self-splicing fitness (ln) (30 °C): -4.06 ± 0.32
- self-splicing fitness (ln) (37 °C): -1.73 ± 0.26

Sequence: AAUAAGCAAUAUUACGAACC
- self-splicing fitness (ln) (30 °C): -1.33 ± 0.15
- self-splicing fitness (ln) (37 °C): -0.414 ± 0.18

Sequence: CUUCAGCAAUAUUACGCCCC
- self-splicing fitness (ln) (37 °C): -1.14 ± 0.47

Sequence: CUCGAGCAAUAUUACGAAAC
- self-splicing fitness (ln) (30 °C): -3.52 ± 0.33
- self-splicing fitness (ln) (37 °C): -1.99 ± 0.33

Sequence: UGUUAGCAAUAUUACGUUUG
- self-splicing fitness (ln) (30 °C): -2.14 ± 0.16
- self-splicing fitness (ln) (37 °C): -1.26 ± 0.18

Sequence: UAGGAGCAAUAUUACGGGAU
- self-splicing fitness (ln) (30 °C): -3.21 ± 0.35
- self-splicing fitness (ln) (37 °C): -2.27 ± 0.37

Sequence: GAACAGCAAUAUUACGUGGA
- self-splicing fitness (ln) (30 °C): -2.32 ± 0.1
- self-splicing fitness (ln) (37 °C): -1.95 ± 0.094

Sequence: CCCGAGCAAUAUUACGCCGU
- self-splicing fitness (ln) (30 °C): -3.61 ± 0.32
- self-splicing fitness (ln) (37 °C): -2.69 ± 0.32

Sequence: AUUCAGCAAUAUUACGUAAA
- self-splicing fitness (ln) (30 °C): -0.737 ± 0.08
- self-splicing fitness (ln) (37 °C): -0.148 ± 0.12

Sequence: AGCCAGCAAUAUUACGACCA
- self-splicing fitness (ln) (30 °C): -1.61 ± 0.14
- self-splicing fitness (ln) (37 °C): -2.81 ± 0.3
